Laboratory results as given in article PMC5009254, “Accessory Interaction Motifs in the Atg19 Cargo Receptor Enable Strong Binding to the Clustered Ubiquitin-related Atg8 Protein*^([image sbox.jpg])” (The Journal of Biological Chemistry, 2016).
Where no end group is shown, it is not given here.

How the values were obtained:
[1] = target: GST-Atg19 CTD L384A, L387A (S. cerevisiae) (UniProt P35193); assay: microscopy-based protein-protein interaction assay on beads; glutathione-Sepharose beads coated with GST-Atg19 CTDs, washed, in 1 μM EGFP-Atg8 solution, 25 mM HEPES pH 7.5, 150 mM NaCl, 1 mM DTT; imaged by spinning disc microscopy without washing; signal normalized to wild type
[2] = target: GST-Atg19 CTD F376A, F379A, L384A, L387A (S. cerevisiae) (UniProt P35193); assay: as above
[3] = target: GST-Atg19 CTD W412A (S. cerevisiae) (UniProt P35193); assay: as above
Atg8 [4] = target: T1, Atg8 (Saccharomyces cerevisiae, UniProt P38182, K26P); assay: biochemical; format: binding
T1 construct: Atg8 1–117; GST (N, cleaved yes); made in house; host or cells: Escherichia coli Rosetta pLysS DE3
From the text: To test this hypothesis, we titrated 12 amino acid-long peptides containing the respective LIR-like motif in the center (Fig. 1) into labeled Atg8 and recorded the CSCs (Fig. 5). […] We attempted to determine a more exact Kd for the FYSF and LPEL peptides by isothermal titration calorimetry.
To corroborate our NMR-based interactions studies, we attempted to measure their interaction with Atg8 by isothermal titration calorimetry.

[5] = target: T2, Atg8 K26P, 15N isotope-labeled (S. cerevisiae, UniProt P38182 1-117, K26P, 15N isotope-labeled); assay: NMR titration; unlabeled Atg19 CTD or peptide titrated into 15N-labeled Atg8 K26P; 2D 15N HSQC at 25 °C; Atg8 135-500 μM, Atg19 C terminus 15-1000 μM; Kd estimated as the median of one-site saturation fits of CSCs of four to twelve Atg8 residues; conditions: both partners purified
T2 construct: Atg8, S. cerevisiae, amino acids 1-117, K26P mutant used for stability in NMR; Cloned in pGEX-4-T1; GST cut off with thrombin; also called [15N]Atg8; K26P mutant of Atg8; source: E. coli Rosetta pLysS DE3 in M9 minimal medium with [15N]ammonium chloride, purified (glutathione beads, thrombin, SEC)
T2 sequence (looked up): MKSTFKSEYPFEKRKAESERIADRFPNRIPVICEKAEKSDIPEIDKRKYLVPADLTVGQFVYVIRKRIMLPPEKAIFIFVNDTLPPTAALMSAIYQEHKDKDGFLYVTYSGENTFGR

EGFP-Atg8, P38182 = target: T3, EGFP-Atg8, P38182; assay: microscopy-based protein-protein interaction assay (GST-Atg19 CTD on glutathione-Sepharose beads, spinning disc microscopy); conditions: chain shown with the change; 1 μm EGFP-Atg8 solution; parent: 100
T3 chain: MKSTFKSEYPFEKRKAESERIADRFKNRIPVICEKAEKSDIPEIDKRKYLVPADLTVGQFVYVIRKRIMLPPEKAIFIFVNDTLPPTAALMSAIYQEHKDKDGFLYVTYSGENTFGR

EGFP-Atg8 = assay: Microscopy-based protein-protein interaction assay: EGFP-Atg8 recruited to glutathione-Sepharose beads coated with GST-Atg19 CTD; format: binding, Saccharomyces cerevisiae; conditions: GST-tagged Atg19 CTD on glutathione-Sepharose beads, 1 μM EGFP-Atg8, 30 min, spinning disc microscopy; mean of 3 experiments
From the text: To confirm the contributions of the ^376FYSF^379 and ^384LPEL^387 motifs for Atg8 binding, we employed a microscopy-based protein-protein interaction assay. To this end, EGFP-Atg8 in solution was recruited to glutathione-Sepharose beads coated with GST-Atg19 C termini (Fig. 6, A and B). Atg8 bound efficiently to beads coated with the wild-type C terminus. Upon introduction of the W412A mutation, the Atg8 signal on the beads dropped to 23%.
FIGURE 6. Accessory LIR motifs contribute to Atg8 binding in a microscopy-based interaction assay. A, glutathione-Sepharose beads were coated with GST-tagged Atg19 CTDs, washed, incubated in a 1 μM EGFP-Atg8 solution, and imaged by spinning disc microscopy. B, signal intensity of EGFP-Atg8 decreased for the LIR and accessory LIR mutants. C, quantification of the EGFP signal (mean ± S.D. from 3 experiments) on GST-Atg19 CTD-coated beads normalized to the mean signal on wild-type GST-Atg19 CTD-coated beads. Scale bars = 30 μm. TEXT PRINTED IN THE PICTURE: (B) W412A: relative binding (%): 23% | (B) L384, L387A: relative binding (%): 47% | (B) F376, F379, L384, L387A: relative binding (%): 25% | (B) L384, L387, W412A: relative binding (%): 7% | (B) F376, F379, L384, L387, W412A: relative binding (%): 2%
Glutathione-Sepharose 4B beads (GE Healthcare) were incubated with GST-tagged Atg19 C terminus for 1 h at 4 °C. After washing the beads three times with 25 mM HEPES (pH 7.5), 150 mM NaCl, and 1 mM DTT, 1 μl of a 1:1 resuspension of glutathione beads in protein solution was added to a 1 μM solution of EGFP-Atg8 30 min prior to imaging. Microscopic images were acquired using a confocal spinning disc microscope (Visitron) and processed with ImageJ software.

Atg8 [6] = conditions: ITC-based Kd determination; read-out: Kd by ITC, full-length Atg19; cited from earlier work
[7] = target: Atg8 used for isothermal titration calorimetry (S. cerevisiae) (UniProt P38182); assay: ITC; peptides titrated, Atg8; conditions not given

EGFP-Atg8 (from UniProt P38182 1-116) (natural protein)
EGFP-Atg8 signal on beads, percent of wild type [1]: 47%
EGFP-Atg8 signal on beads, percent of wild type [2]: 25%
EGFP-Atg8 signal on beads, percent of wild type [3]: 23%

GDDNEKALTWEEL [canonical LIR peptide]
Kd (Atg8 [4]): 2.8 µM

B1: Atg19 CTD (amino acids 365-407) F376A, F379A, L384A, L387A (domain or fragment, S. cerevisiae, UniProt P35193 365-407, looked up)
chain: SAESLQASQEPAYSAQIDTAPEADDSSIISTSISLSYDGDDNE
notes: Atg19, S. cerevisiae, amino acids 365-407 (last eight amino acids 408-415 deleted), F376A, F379A, L384A, L387A; also called FFLLΔ; source: E. coli Rosetta pLysS DE3, purified (glutathione beads, thrombin, SEC)
Kd [5]: 600 µM

B2: GST-Atg19 CTD, wild type, P35193 L384A; L387A; W412A (protein)
chain: SAESLQASQEPFYSFQIDTAPEADDSSIISTSISLSYDGDDNEKALTAEEL
percent of parent (EGFP-Atg8, P38182): 7%

B3: GST-Atg19 CTD, wild type, P35193 F376A; F379A; L384A; L387A; W412A (protein)
chain: SAESLQASQEPAYSAQIDTAPEADDSSIISTSISLSYDGDDNEKALTAEEL
percent of parent (EGFP-Atg8, P38182): 2%

B4: Atg19 C-terminal domain (amino acids 365-415), wild type (domain or fragment, S. cerevisiae, UniProt P35193 365-415, looked up)
chain: SAESLQASQEPFYSFQIDTLPELDDSSIISTSISLSYDGDDNEKALTWEEL
notes: Atg19, S. cerevisiae, C-terminal domain, amino acids 365-415; also called Atg19 CTD; wild-type Atg19 C terminus; source: E. coli Rosetta pLysS DE3, purified (glutathione beads, thrombin, SEC)
Kd [5]: ~130 µM

B5: Atg19 CTD F376A, F379A, W412A (amino acids 365-415) (domain or fragment, S. cerevisiae, UniProt P35193 365-415, looked up)
chain: SAESLQASQEPAYSAQIDTLPELDDSSIISTSISLSYDGDDNEKALTAEEL
notes: Atg19, S. cerevisiae, C-terminal domain, amino acids 365-415, F376A, F379A, W412A; also called FFWA; triple mutant C terminus; source: E. coli Rosetta pLysS DE3, purified (glutathione beads, thrombin, SEC)
Kd [5]: 290 µM

B6: Atg19 W412A CTD (amino acids 365-415) (domain or fragment, S. cerevisiae, UniProt P35193 365-415, looked up)
chain: SAESLQASQEPFYSFQIDTLPELDDSSIISTSISLSYDGDDNEKALTAEEL
notes: Atg19, S. cerevisiae, C-terminal domain, amino acids 365-415, W412A; also called WA; W412A mutant Atg19 CTD; source: E. coli Rosetta pLysS DE3, purified (glutathione beads, thrombin, SEC)
Kd [5]: 180 µM

B7: Atg19 CTD L384A, L387A (amino acids 365-415) (domain or fragment, S. cerevisiae, UniProt P35193 365-415, looked up)
chain: SAESLQASQEPFYSFQIDTAPEADDSSIISTSISLSYDGDDNEKALTWEEL
notes: Atg19, S. cerevisiae, C-terminal domain, amino acids 365-415, L384A, L387A; also called LLA; source: E. coli Rosetta pLysS DE3, purified (glutathione beads, thrombin, SEC)
Kd [5]: ~70 µM

B8: W412A (protein, UniProt P35193 1-415, looked up, variant W412A)
Autophagy-related protein 19: MNNSKTNQQMNTSMGYPLTVYDECNKFQLIVPTLDANIMLWCIGQLSLLNDSNGCKHLFWQPNDKSNVRILLNNYDYGHLFKYLQCQRKCSVYIGEGTLKKYNLTISTSFDNFLDLTPSEEKESLCREDAHEDPVSPKAGSEEEISPNSTSNVVVSRECLDNFMKQLLKLEESLNKLELEQKVTNKEPNHRISGTIDIPEDRSELVNFFTELKTVKQLEDVFQRYHDYERLSQECDSKTEIASDHSKKETKIEVEPPNERSLQITMNQRDNSLYFQLFNNTNSVLAGNCKLKFTDAGDKPTTQIIDMGPHEIGIKEYKEYRYFPYALDLEAGSTIEIENQYGEVIFLGKYGSSPMINLRPPSRLSAESLQASQEPFYSFQIDTLPELDDSSIISTSISLSYDGDDNEKALTAEEL
relative binding (EGFP-Atg8 signal on beads, normalized to wild-type GST-Atg19 CTD) (EGFP-Atg8): 23%

B9: F376, F379, L384, L387A (protein, UniProt P35193 1-415, looked up, variant F376A F379A L384A L387A)
Autophagy-related protein 19: MNNSKTNQQMNTSMGYPLTVYDECNKFQLIVPTLDANIMLWCIGQLSLLNDSNGCKHLFWQPNDKSNVRILLNNYDYGHLFKYLQCQRKCSVYIGEGTLKKYNLTISTSFDNFLDLTPSEEKESLCREDAHEDPVSPKAGSEEEISPNSTSNVVVSRECLDNFMKQLLKLEESLNKLELEQKVTNKEPNHRISGTIDIPEDRSELVNFFTELKTVKQLEDVFQRYHDYERLSQECDSKTEIASDHSKKETKIEVEPPNERSLQITMNQRDNSLYFQLFNNTNSVLAGNCKLKFTDAGDKPTTQIIDMGPHEIGIKEYKEYRYFPYALDLEAGSTIEIENQYGEVIFLGKYGSSPMINLRPPSRLSAESLQASQEPAYSAQIDTAPEADDSSIISTSISLSYDGDDNEKALTWEEL
relative binding (EGFP-Atg8 signal on beads, normalized to wild-type GST-Atg19 CTD) (EGFP-Atg8): 25%

B10: L384, L387, W412A (protein, UniProt P35193 1-415, looked up, variant L384A L387A W412A)
Autophagy-related protein 19: MNNSKTNQQMNTSMGYPLTVYDECNKFQLIVPTLDANIMLWCIGQLSLLNDSNGCKHLFWQPNDKSNVRILLNNYDYGHLFKYLQCQRKCSVYIGEGTLKKYNLTISTSFDNFLDLTPSEEKESLCREDAHEDPVSPKAGSEEEISPNSTSNVVVSRECLDNFMKQLLKLEESLNKLELEQKVTNKEPNHRISGTIDIPEDRSELVNFFTELKTVKQLEDVFQRYHDYERLSQECDSKTEIASDHSKKETKIEVEPPNERSLQITMNQRDNSLYFQLFNNTNSVLAGNCKLKFTDAGDKPTTQIIDMGPHEIGIKEYKEYRYFPYALDLEAGSTIEIENQYGEVIFLGKYGSSPMINLRPPSRLSAESLQASQEPFYSFQIDTAPEADDSSIISTSISLSYDGDDNEKALTAEEL
relative binding (EGFP-Atg8 signal on beads, normalized to wild-type GST-Atg19 CTD) (EGFP-Atg8): 7%

B11: full-length Atg19: full-length Atg19 cargo receptor of S. cerevisiae (protein, UniProt P35193 1-415, looked up)
chain: MNNSKTNQQMNTSMGYPLTVYDECNKFQLIVPTLDANIMLWCIGQLSLLNDSNGCKHLFWQPNDKSNVRILLNNYDYGHLFKYLQCQRKCSVYIGEGTLKKYNLTISTSFDNFLDLTPSEEKESLCREDAHEDPVSPKAGSEEEISPNSTSNVVVSRECLDNFMKQLLKLEESLNKLELEQKVTNKEPNHRISGTIDIPEDRSELVNFFTELKTVKQLEDVFQRYHDYERLSQECDSKTEIASDHSKKETKIEVEPPNERSLQITMNQRDNSLYFQLFNNTNSVLAGNCKLKFTDAGDKPTTQIIDMGPHEIGIKEYKEYRYFPYALDLEAGSTIEIENQYGEVIFLGKYGSSPMINLRPPSRLSAESLQASQEPFYSFQIDTLPELDDSSIISTSISLSYDGDDNEKALTWEEL
modifications: full-length
notes: full-length Atg19 cargo receptor of S. cerevisiae
Kd (Atg8 [6]): 35 µM

B12: L384A, L387A (protein, UniProt P35193 1-415, looked up, variant L384A L387A)
Autophagy-related protein 19: MNNSKTNQQMNTSMGYPLTVYDECNKFQLIVPTLDANIMLWCIGQLSLLNDSNGCKHLFWQPNDKSNVRILLNNYDYGHLFKYLQCQRKCSVYIGEGTLKKYNLTISTSFDNFLDLTPSEEKESLCREDAHEDPVSPKAGSEEEISPNSTSNVVVSRECLDNFMKQLLKLEESLNKLELEQKVTNKEPNHRISGTIDIPEDRSELVNFFTELKTVKQLEDVFQRYHDYERLSQECDSKTEIASDHSKKETKIEVEPPNERSLQITMNQRDNSLYFQLFNNTNSVLAGNCKLKFTDAGDKPTTQIIDMGPHEIGIKEYKEYRYFPYALDLEAGSTIEIENQYGEVIFLGKYGSSPMINLRPPSRLSAESLQASQEPFYSFQIDTAPEADDSSIISTSISLSYDGDDNEKALTWEEL
relative binding (EGFP-Atg8 signal on beads, normalized to wild-type GST-Atg19 CTD) (EGFP-Atg8): 47%

SQEPFYSFQIDT [12 amino acid peptide containing 376FYSF379 of Atg19]
Kd [5]: ~330 µM

GDDNEKALTWEEL [peptide containing the canonical 412WEEL415 motif (Atg19, 403…415)]
Kd [7]: 2.8 µM

QIDTLPELDDSS [12 amino acid peptide containing 384LPEL387 of Atg19]
Kd [5]: ~590 µM
